Measurements from publication PMC8194098.

Target: Ras:G12V mutant (UniProt P01112)
Assay: pull-down

B1: RIN1-RA:R629A mutant (natural protein)
chain: MESPGESGAGSPGAPSPSSFTTGHLAREKPAQDPLYDVPNASGGQAGGPQRPGRVVSLRERLLLTRPVWLQLQANAAAALHMLRTEPPGTFLVRKSNTRQCQALCMRLPEASGPSFVSSHYILESPGGVSLEGSELMFPDLVQLICAYCHTRDILLLPLQLPRAIHHAATHKELEAISHLGIEFWSSSLNIKAQRGPAGGPVLPQLKARSPQELDQGTGAALCFFNPLFPGDLGPTKREKFKRSFKVRVSTETSSPLSPPAVPPPPVPVLPGAVPSQTERLPPCQLLRRESSVGYRVPAGSGPSLPPMPSLQEVDCGSPSSSEEEGVPGSRGSPATSPHLGRRRPLLRSMSAAFCSLLAPERQVGRAAAALMQDRHTAAGQLVQDLLTQVRAGPEPQELQGIRQALSRARAMLSAELGPEKLLSPKRLEHVLEKSLHCSVLKPLRPILAARLRRRLAADGSLGRLAEGLRLARAQGPGAFGSHLSLPSPVELEQVRQKLLQLLRTYSPSAQVKRLLQACKLLYMALRTQEGEGAGADEFLPLLSLVLAHCDLPELLLEAEYMSELLEPSLLTGEGGYYLTSLSASLALLSGLGQAHTLPLSPVQELRRSLSLWEQRRLPATHCFQHLLAVAYQDPSSGCTSKTLAVPPEASIATLNQLCATKFRVTQPNTFGLFLYKEQGYHRLPPGALAHRLPTTGYLVYRRAEWPETQGAVTEEEGSGQSEARSRGEEQGCQGDGDAGVKASPRDIREQSETTAEGGQGQAQEGPAQPGEPEAEGSRAAEE
Q: With B1 as the binder, how does the percent inhibition of binding read?
A: The percent inhibition of binding was 80%.
